# From US11230581B2, “Peptides and combination of peptides for use in immunotherapy against ovarian cancer and other cancers” (Immatics Biotechnologies GmbH, priority 2015, dated 2022)
# Biological target: HLA-A*02:01 (Homo sapiens, UniProt P04439, D140Y/D185E/D98H/E176V/E277Q/G131W/G231S/I119V/I121R/I166T/I218V/L300P/L318F/N151K/N90K/P208A/P217A/Q86G/Q94H/R138H/R169H/T345S)
# Test: MHC binding assay (UV-ligand exchange, β2m ELISA, peptide exchange yield)
# Settings: binding of HLA-class I restricted peptides to HLA-A*02:01, UV-ligand exchange
# In short: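 Yield of stabilized complexes quantified via the β2m light chain in an ELISA (streptavidin capture, 100-fold diluted monomers, HRP anti-β2m 2 ug/ml at 37 °C, TMB, A450). The complexes come from UV-triggered replacement of a photocleavable ligand by the candidate peptide.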
row,"Peptide exchange (MHC class I binding score, peptide exchange yield)",Substance
1,“+++” (≥50 = +++),2 (SLLEADPFL; listed as Homo sapiens) [compound 2]
2,“+++” (≥50 = +++),352 (SLLELLHIYV; listed as Homo sapiens) [compound 352]
3,“+++” (≥50 = +++),487 (LLINSVFHV; listed as Homo sapiens) [compound 487]
4,“+++” (≥50 = +++),322 (TLMTSLPAL; listed as Homo sapiens) [compound 322]
5,“+++” (≥50 = +++),312 (IISDLTIAL; listed as Homo sapiens) [compound 312]
6,“++” (≥20% = ++),124 (ALYETELADA; listed as Homo sapiens) [compound 124]
7,“+++” (≥50 = +++),342 (HIYDKVMTV; listed as Homo sapiens) [compound 342]
8,“+++” (≥50 = +++),167 (KVLEVTEEFGV; listed as Homo sapiens) [compound 167]
9,“+++” (≥50 = +++),243 (LLLNELPSV; listed as Homo sapiens) [compound 243]
10,“++” (≥20% = ++),18 (YLVAKLVEV; listed as Homo sapiens) [compound 18]
11,“++” (≥20% = ++),392 (ALLHPQGFEV; listed as Homo sapiens) [compound 392]
12,“++” (≥20% = ++),180 (FQIDPHSGLVTV; listed as Homo sapiens) [compound 180]
13,“++” (≥20% = ++),389 (LLADVTHLL; listed as Homo sapiens) [compound 389]
14,“+++” (≥50 = +++),324 (FLYDEIEAEV; listed as Homo sapiens) [compound 324]
15,“+++” (≥50 = +++),378 (ALGYFVPYV; listed as Homo sapiens) [compound 378]
16,“+++” (≥50 = +++),514 (ILVDWLVQV; listed as Homo sapiens) [compound 514]
17,“+++” (≥50 = +++),341 (SQIALNEKLVNL; listed as Homo sapiens) [compound 341]
18,“+++” (≥50 = +++),328 (ALNDQVFEI; listed as Homo sapiens) [compound 328]
19,“++++” (≥75% = ++++),329 (FLVTLNNVEV; listed as Homo sapiens) [compound 329]
20,“+++” (≥50 = +++),150 (RLWEEGEELEL; listed as Homo sapiens) [compound 150]
21,“+++” (≥50 = +++),496 (FLVEKQPPQV; listed as Homo sapiens) [compound 496]
22,“++” (≥20% = ++),251 (ALYTGFSILV; listed as Homo sapiens) [compound 251]
23,“+++” (≥50 = +++),181 (LLWAGTAFQV; listed as Homo sapiens) [compound 181]
24,“+++” (≥50 = +++),72 (SLLELDGINL; listed as Homo sapiens) [compound 72]
25,“++” (≥20% = ++),273 (NLFQSVREV; listed as Homo sapiens) [compound 273]
